Reference: patent publication US12098378B2, “Anti-fungal polypeptides” (priority 2020, dated 2024)

Key:
[1] = system: Fraction 3; experiment: ELISA with biotinylated liposomes on streptavidin-coated plates; assay type: binding, Botrytis cinerea; conditions: screen for additional Fraction 3 binders (FIG. 13)
Description: Dissociation constants (Kd) can be estimated based on the results of an ELISA. In equilibrium analysis as in ELISA, the Kd can be calculated from the equilibrium binding response. Where the ELISA plate wells are coated with a target antigen, and where the target antigen may be a lipid-containing fraction of the membrane of Botrytis cinerea, such a method may further use a range of concentrations of a polypeptide binding the target antigen. Where the ELISA generally provides a quantitative adsorption measure for each polypeptide concentration representing binding of the polypeptide to the target antigen, the range of concentration of a polypeptide may for example be 0.5, 1, 2.5, 5, and 10 μM. The most suitable range of concentrations used can vary depending on the affinity of the polypeptide to the target antigen. The corresponding absorption values as determined by ELISA may result in a sigmoid curve when absorption values are plotted against the logarithmic conversion of the polypeptide concentrations. This sigmoid curve may serve to define an IC50 value. Where this IC50 is the concentration of polypeptide where the corresponding absorption value is 50% of the saturated value as estimated by the maximum of the sigmoidal function, the Kd can be estimated by 1/Ka were the association constant (Ka) can be estimated as 1/IC50. Thus Kd corresponds to the analyte concentration that reaches equilibrium at 50% binding saturation. Commonly computation methods can be used for these calculations. For example, this can be done using GraphPad. In some embodiments, the Kd may be determined by surface plasmon resonance (SPR).
The above-mentioned method for the formation of liposomes (Example 12) was modified with the addition of a biotinylated lipid (12:0 Biotinyl M G (1-(12-N-biotin)aminododecanoyl-rac-glycerol), Sigma Aldrich), to allow for use of these liposomes for ELISA using streptavidin-coated plates (Pierce™ Streptavidin Coated High Capacity Plates, Clear, 96-Well, blocked with SuperBlock™ Buffer, Thermo Fisher Scientific).
To estimate the dissociation constant Kd value of 10G11 binding to Fraction 3, the ELISA set-up with biotinylated liposomes from Fraction 3 as described in Example 13 was used. 10G11 polypeptide was added in the following concentrations: 0.5, 1, 2.5, 5, and 10 μM, prepared by a serial dilution in phosphate buffer. […] This plot was used to estimate the Kd dissociation constant using GraphPad. Where non-linear regression fitting was used.

[2] = system: Botrytis cinerea R16; experiment: In vitro antifungal assay, IncuCyte Zoom monitoring of fungal growth from spore suspension; assay type: cell-based
Description: (§1) Two-fold dilutions of purified VHH 10G11Q were prepared in 96-well microtiter plates. To 20 μl of these dilutions and to 20 μl of water as a control, 80 μl of fungal spore suspension (1 E+05 spores/ml in half strength potato dextrose broth (PDB)) were added, starting with a final VHH 10G11Q concentration of 10 μM. The test plates were incubated for 36 h at 25° C. using the IncuCyte Zoom live cell imaging system. All tests were performed in at least 2 replicates.
as §1, with “VHH 10G11Q and 41D01 were prepared” for “VHH 10G11Q were prepared”, “concentration of 40 μM. The” for “concentration of 10 μM. The”, “incubated for 48 h at” for “incubated for 36 h at”
Microplate graphs were generated using the time plot feature in the graph/export menu of the IncuCyte® Base Analysis Software. Raw data for confluence of treated samples at mid log growth were exported to GraphPad Prism 8 and plotted as a semi logarithmic function of the standard concentrations. IC50 values are extrapolated after fitting the data with a four-parameter logistic regression curve. Pathogen sensitivity is measured based on the IC50, which refers to the concentration (μM) that inhibits 50% of spore germination and/or mycelial growth.

[3] = system: Colletotrichum orbiculare; experiment: Control of anthracnose on squash in glasshouse; assay type: in vivo; conditions: 175, 350, 700 g ai/ha, 4 applications; until 2 weeks after the last application; vs non-treated inoculated control (FIG. 18)
Description: Four replicates of pot-grown squash plants (2 plants/pot) were sprayed with 125 ml aqueous suspension, containing a concentration of active ingredient as described in Table 2. Four applications were done spaced 6 or 7 days apart. Plants were inoculated once with Colletotrichum orbiculare two days after the first application (application A) of active ingredient. The efficacy of 10G11Q was compared to that of a non-treated control and the chemical reference Bravo WS (Chlorothalonil).
Disease severity is recorded as percent severity on a scale of 0-100%. Recording started when first symptoms appeared followed by regular assessment till 2 weeks after the fourth application (application D) of the active ingredient.

[4] = system: Botrytis cinerea R16; experiment: Prolonged incubation antifungal assay followed over 14 days; assay type: cell-based; conditions: followed over a period of 14 days (FIG. 9)
Description: as §1, with “The test plates were incubated for 36 h at 25° C. using the IncuCyte Zoom live cell imaging system.” left out

[5] = system: Botrytis cinerea R16; conditions: several test strains, including Botrytis cinerea R16; WO2014/177595 A1 and WO2014/191146 A1; cited from earlier work

B1: 12C03Q: VHH polypeptide, SEQ ID NO: 5 (protein)
VHH: QVQLQESGGGLVQAGDSLRLSCAASISDRAFSRHVMGWFRQPPGKEREFVAAIGWTGRRTYYADSVKGRFTISRDNAMNTVYLQMNSLKPEDTAVYYCAASHFYSVSFEINDYDYWGQGTQVTVSS
binding to Fraction 3 by ELISA [1]: Fraction 3 binding

B2: 10G11Q: VHH polypeptide, SEQ ID NO: 1, begins with a Q residue (protein)
VHH: QVQLVESGGGLVQAGGSLRLSCAASRSIFSINAMDWYRQAPGKQREWVAGITRGGTTKYADSVKGRFTISRDNAKKKVYLQMNSLKPEDTAVYYCNVLRGEQPWTRDYWGQGTQVTVSS
% fungal growth (total green object area) in function of VHH concentration ([2]; two-fold dilutions from 10 μM, 36 h at 25° C. (FIG. 1)): clear dose-dependent growth inhibition pattern | growth inhibition compared to VHH 41D01 ([2]; two-fold dilutions from 40 μM, 48 h at 25° C. (FIG. 2)): more prominent growth inhibition pattern | percent severity of anthracnose on squash [3]: clear and dose-related growth inhibition pattern

B3: Mutant 10: 10G11 charge variant: W100aK and T100bK substitutions in CDR3 (SEQ ID NO: 16) (protein)
VHH: DVQLVESGGGLVQAGGSLRLSCAASRSIFSINAMDWYRQAPGKQREWVAGITRGGTTKYADSVKGRFTISRDNAKKKVYLQMNSLKPEDTAVYYCNVLRGEQPKKRDYWGQGTQVTVSS
antifungal activity of charge variants relative to 10G11 ([2]; assay as in Example 5 (FIG. 6)): significant increase in antifungal activity

B4: Mutant 6: 10G11 charge variant: S27H, I28H and S30H substitutions in CDR1 (SEQ ID NO: 12) (protein)
VHH: DVQLVESGGGLVQAGGSLRLSCAASRHHFHINAMDWYRQAPGKQREWVAGITRGGTTKYADSVKGRFTISRDNAKKKVYLQMNSLKPEDTAVYYCNVLRGEQPWTRDYWGQGTQVTVSS
antifungal activity of charge variants relative to 10G11 ([2]; assay as in Example 5 (FIG. 6)): on par antifungal activity with 10G11

B5: Mutant 11: 10G11 charge variant: S27K, I28K, S30K in CDR1 and W100aK, T100bK in CDR3 (SEQ ID NO: 17) (protein)
VHH: DVQLVESGGGLVQAGGSLRLSCAASRKKFKINAMDWYRQAPGKQREWVAGITRGGTTKYADSVKGRFTISRDNAKKKVYLQMNSLKPEDTAVYYCNVLRGEQPKKRDYWGQGTQVTVSS
antifungal activity of charge variants relative to 10G11 ([2]; assay as in Example 5 (FIG. 6)): significant increase in antifungal activity | increase in anti-fungal activity over 10G11 ([2]; assay as in Example 5 (FIG. 6)): up to 5 fold | effect on preventing spore outgrowth [4]: sustained effect on preventing spore outgrowth

B6: Mutant 7: 10G11 charge variant: W100aH and T100bH substitutions in CDR3 (SEQ ID NO: 13) (protein)
VHH: DVQLVESGGGLVQAGGSLRLSCAASRSIFSINAMDWYRQAPGKQREWVAGITRGGTTKYADSVKGRFTISRDNAKKKVYLQMNSLKPEDTAVYYCNVLRGEQPHHRDYWGQGTQVTVSS
antifungal activity of charge variants relative to 10G11 ([2]; assay as in Example 5 (FIG. 6)): on par antifungal activity with 10G11

B7: Mutant 8: 10G11 charge variant: S27H, I28H, S30H in CDR1 and W100aH, T100bH in CDR3 (SEQ ID NO: 14) (protein)
VHH: DVQLVESGGGLVQAGGSLRLSCAASRHHFHINAMDWYRQAPGKQREWVAGITRGGTTKYADSVKGRFTISRDNAKKKVYLQMNSLKPEDTAVYYCNVLRGEQPHHRDYWGQGTQVTVSS
antifungal activity of charge variants relative to 10G11 ([2]; assay as in Example 5 (FIG. 6)): significant increase in antifungal activity

B8: Mutant 9: 10G11 charge variant: S27K, I28K and S30K substitutions in CDR1 (SEQ ID NO: 15) (protein)
VHH: DVQLVESGGGLVQAGGSLRLSCAASRKKFKINAMDWYRQAPGKQREWVAGITRGGTTKYADSVKGRFTISRDNAKKKVYLQMNSLKPEDTAVYYCNVLRGEQPWTRDYWGQGTQVTVSS
antifungal activity of charge variants relative to 10G11 ([2]; assay as in Example 5 (FIG. 6)): significant increase in antifungal activity | effect on preventing spore outgrowth [4]: sustained effect on preventing spore outgrowth

B9: 10E11Q: VHH polypeptide, SEQ ID NO: 3 (protein)
VHH: QVQLQESGGGLVQAGGSLRLSCAASGTIFRPTAMGWYRQAPGKERELVATITTGGSTKYADSVKGRFTISRGNAKNTVYLQMSSLKPEDTAVYYCNAQWGVRTRDYWGQGTQVTVSS
binding to Fraction 3 by ELISA [1]: Fraction 3 binding

B10: 10G11Q-His: 10G11Q polypeptide with a C-terminal addition of a 6× His-Tag (SEQ ID NO: 148) (protein)
VHH: QVQLQESGGGLVQAGGSLRLSCAASRSIFSINAMDWYRQAPGKQREWVAGITRGGTTKYADSVKGRFTISRDNAKKKVYLQMNSLKPEDTAVYYCNVLRGEQPWTRDYWGQGTQVTVSSAAAHHHHHH
modifications: C-terminal 6xHis tag
antifungal activity of his-tagged variant relative to 10G11Q ([2]; assay as in Example 5 (FIG. 4)): significantly improved anti-fungal activity

B11: 41D01: anti-glucosylceramide binding VHH described in WO2014/177595 A1 and WO2014/191146 A1 (protein)
VHH: QVQLQESGGGLVQAGGSLRLSCAASGRTFSRYGMGWFRQLPGKQRELVTSITRGGTTTYADSVKGRFTISRDNAKNTVYLQMNSLKPEDTAVYYCNARSIWRDYWGQGTQVTVSS
modifications: left off: small tags and cut ends
antifungal activity among anti-glucosylceramide binding VHHs [5]: most prominent antifungal activity
